For this series, the target named is T1, α-fructosyl hexapeptide (α-fructosyl-valyl-histidyl-leucyl-threonyl-propyl-glutamic acid).
T1 chain: VHLTPE

B1: CFP-T7-H11 (protein)
chain: MTSNRADTRVIVVGGGGTIGSSTALHLVRSGYAPANITVLDTFEIPSAQSAGHDLNKIMGIDLRNKVDLQMSLEARQMWKEDELFQPFFHNTGRMDCEHTPEGIEKLKKLYQALHDAGAGLEKTHAWLDNEDEILSKMPLLQRDQIQGWKAIWSQDGGWLAAAKAINAIGQFLKERGVKFGFGGAGSFKQPLFDDEGTTCIGVETADGTKYYADKVVLAAGAWSPTLVDLEDQCCSKAWVYAHIQLTPEEAAEYKGVPVVYNGEFGFFFEPDEFGVIKVCDEFPGFSRFKEHQPYGAPSPKRISVPRSHAKHPTDTYPDASEVSIKKAIATFLPRFQDKELFNRALCWCTDTADAALLMCEHPKWKNFILATGDSGHSFKILPNVGKYVVELIEGRLPEEMAYQWRWRPGGDALKSRRAAPPKDLADMPGWKHDPKL
In the case of B1, the αF6P oxidation activity ratio, relative to CFP-T7-H6 designated to be 100 (relative (CFP-T7-H6 = 100)) came out at 951 and the αF6P oxidation activity, relative to αFVH oxidation activity designated to be 100 (relative (αFVH = 100)) was found to be 12.5.

B2: CFP-T7-H1 (protein)
chain: MTSNRADTRVIVVGGGGTIGSSTALHLVRSGYAPANITVLDTFEIPSAQSAGHDLNKIMGIALRNKVDLQMSLEARQMWKEDELFQPFFHNTGRMDCEHTPEGIEDLKKQYQALHDAGAGLEKTHAWLDNEDEILSKMPLLQRDQIQGWKAIWSQDGGWLAAAKAINAIGQFLKERGVKFGFGGAGSFKQPLFDDEGTTCIGVETADGTKYYADKVVLAAGAWSPTLVDLEDQCCSKAWVYAHIQLTPEEAAEYKGVPVVYNGEFGFFFEPDEFGVIKVCDEFPGFSRFKEHQPYGAPSPKRISVPRSHAKHPTDTYPDASEVSIKKAIATFLPRFQDKELFNRALCWCTDTADAALLMCEHPKWKNFILATGDSGHSFKILPNVGKYVVELIEGRLPEEMAYQWRWRPGGDALKSRRAAPPKDLADMPGWKHDPKL
B2 yielded a αF6P oxidation activity, relative to αFVH oxidation activity designated to be 100 (relative (αFVH = 100)) of 0.0316.

B3: CFP-T7-H29 (protein)
chain: MTSNRADTRVIVVGGGGTIGSSTALHLVRSGYAPANITVLDTFEIPSAQSAGHDLNKIMGIDHRNKVDLQMSLEARQMWKEDELFQPFFHNTGRMDCEHTPEGIEKLKKLYQKLHDAGAGLEKTHAWLDNEDEILSKMPLLQRDQIQGWKAIWSQDGGWLAAAKAINAIGQFLKERGVKFGFGGAGSFKQPLFDDEGTTCIGVETADGTKYYADKVVLAAGAWSPTLVDLEDQCCSKAWVYAHIQLTPEEAAEYKGVPVVYNGEFGFFFEPDEFGVIKVCDEFPGFSRFKEHQPYGAPSPKRISVPRSHAKHPTDTYPDASEVSIKKAIATFLPRFQDKELFNRALCWCTDTADAALLMCEHPKWKNFILATGDSGHSFKILPNVGKYVVELIEGRLPEEMAYQWRWRPGGDALKSRRKAPPKDLADMPGWKHDPKL
Turning to B3, the αF6P oxidation activity ratio, relative to CFP-T7-H26 designated to be 100 (relative (CFP-T7-H26 = 100)) was found to be 102 and the αF6P oxidation activity, relative to αFVH oxidation activity designated to be 100 (relative (αFVH = 100)) turned out to be 111.

B4: CFP-T7-H14 (protein)
chain: MTSNRADTRVIVVGGGGTIGSSTALHLVRSGYAPANITVLDTFEIPSAQSAGHDLNKIMGIDLRNKVDLQMSLEARQMWKEDELFQPFFHNTGRMDCEHTPEGIEDLKKLYQRLHDAGAGLEKTHAWLDNEDEILSKMPLLQRDQIQGWKAIWSQDGGWLAAAKAINAIGQFLKERGVKFGFGGAGSFKQPLFDDEGTTCIGVETADGTKYYADKVVLAAGAWSPTLVDLEDQCCSKAWVYAHIQLTPEEAAEYKGVPVVYNGEFGFFFEPDEFGVIKVCDEFPGFSRFKEHQPYGAPSPKRISVPRSHAKHPTDTYPDASEVSIKKAIATFLPRFQDKELFNRALCWCTDTADAALLMCEHPKWKNFILATGDSGHSFKILPNVGKYVVELIEGRLPEEMAYQWRWRPGGDALKSRRAAPPKDLADMPGWKHDPKL
For B4, the αF6P oxidation activity ratio, relative to CFP-T7-H6 designated to be 100 (relative (CFP-T7-H6 = 100)) worked out at 183 and the αF6P oxidation activity, relative to αFVH oxidation activity designated to be 100 (relative (αFVH = 100)) came to 4.22.

B5: CFP-T7-H13 (protein)
chain: MTSNRADTRVIVVGGGGTIGSSTALHLVRSGYAPANITVLDTFEIPSAQSAGHDLNKIMGIDLRNKVDLQMSLEARQMWKEDELFQPFFHNTGRMDCEHTPEGIEDLKKLYQKLHDAGAGLEKTHAWLDNEDEILSKMPLLQRDQIQGWKAIWSQDGGWLAAAKAINAIGQFLKERGVKFGFGGAGSFKQPLFDDEGTTCIGVETADGTKYYADKVVLAAGAWSPTLVDLEDQCCSKAWVYAHIQLTPEEAAEYKGVPVVYNGEFGFFFEPDEFGVIKVCDEFPGFSRFKEHQPYGAPSPKRISVPRSHAKHPTDTYPDASEVSIKKAIATFLPRFQDKELFNRALCWCTDTADAALLMCEHPKWKNFILATGDSGHSFKILPNVGKYVVELIEGRLPEEMAYQWRWRPGGDALKSRRAAPPKDLADMPGWKHDPKL
Turning to B5, the αF6P oxidation activity ratio, relative to CFP-T7-H6 designated to be 100 (relative (CFP-T7-H6 = 100)) came out at 207 and the αF6P oxidation activity, relative to αFVH oxidation activity designated to be 100 (relative (αFVH = 100)) is 4.33.

B6: CFP-T7-H28 (protein)
chain: MTSNRADTRVIVVGGGGTIGSSTALHLVRSGYAPANITVLDTFEIPSAQSAGHDLNKIMGIDHRNKVDLQMSLEARQMWKEDELFQPFFHNTGRMDCEHTPKGIEKLKKLYQKLHDAGAGLEKTHAWLDNEDEILSKMPLLQRDQIQGWKAIWSQDGGWLAAAKAINAIGQFLKERGVKFGFGGAGSFKQPLFDDEGTTCIGVETADGTKYYADKVVLAAGAWSPTLVDLEDQCCSKAWVYAHIQLTPEEAAEYKGVPVVYNGEFGFFFEPDEFGVIKVCDEFPGFSRFKEHQPYGAPSPKRISVPRSHAKHPTDTYPDASEVSIKKAIATFLPRFQDKELFNRALCWCTDTADAALLMCEHPKWKNFILATGDSGHSFKILPNVGKYVVELIEGRLPEEMAYQWRWRPGGDALKSRRAAPPKDLADMPGWKHDPKL
Turning to B6, the αF6P oxidation activity ratio (reference row of the table, 100) (relative (CFP-T7-H28 = 100)) is 100; the αF6P oxidation activity ratio, relative to CFP-T7-H26 designated to be 100 (relative (CFP-T7-H26 = 100)) was determined as 117; the αF6P oxidation activity, relative to αFVH oxidation activity designated to be 100 (relative (αFVH = 100)) is 134.

B7: CFP-T7-H25 (protein)
chain: MTSNRADTRVIVVGGGGTIGSSTALHLVRSGYAPANITVLDTFEIPSAQSAGHDLNKIMGIDDRNKVDLQMSLEARQMWKEDELFQPFFHNTGRMDCEHTPEGIEKLKKLYQKLHDAGAGLEKTHAWLDNEDEILSKMPLLQRDQIQGWKAIWSQDGGWLAAAKAINAIGQFLKERGVKFGFGGAGSFKQPLFDDEGTTCIGVETADGTKYYADKVVLAAGAWSPTLVDLEDQCCSKAWVYAHIQLTPEEAAEYKGVPVVYNGEFGFFFEPDEFGVIKVCDEFPGFSRFKEHQPYGAPSPKRISVPRSHAKHPTDTYPDASEVSIKKAIATFLPRFQDKELFNRALCWCTDTADAALLMCEHPKWKNFILATGDSGHSFKILPNVGKYVVELIEGRLPEEMAYQWRWRPGGDALKSRRAAPPKDLADMPGWKHDPKL
With B7, the αF6P oxidation activity ratio, relative to CFP-T7-H20 designated to be 100 (relative (CFP-T7-H20 = 100)) was determined as 24.

B8: CFP-T7-H12 (protein)
chain: MTSNRADTRVIVVGGGGTIGSSTALHLVRSGYAPANITVLDTFEIPSAQSAGHDLNKIMGIDLRNKVDLQMSLEARQMWKEDELFQPFFHNTGRMDCEHTPEGIERLKKLYQALHDAGAGLEKTHAWLDNEDEILSKMPLLQRDQIQGWKAIWSQDGGWLAAAKAINAIGQFLKERGVKFGFGGAGSFKQPLFDDEGTTCIGVETADGTKYYADKVVLAAGAWSPTLVDLEDQCCSKAWVYAHIQLTPEEAAEYKGVPVVYNGEFGFFFEPDEFGVIKVCDEFPGFSRFKEHQPYGAPSPKRISVPRSHAKHPTDTYPDASEVSIKKAIATFLPRFQDKELFNRALCWCTDTADAALLMCEHPKWKNFILATGDSGHSFKILPNVGKYVVELIEGRLPEEMAYQWRWRPGGDALKSRRAAPPKDLADMPGWKHDPKL
As for B8, the αF6P oxidation activity ratio, relative to CFP-T7-H6 designated to be 100 (relative (CFP-T7-H6 = 100)) was 636 and the αF6P oxidation activity, relative to αFVH oxidation activity designated to be 100 (relative (αFVH = 100)) amounted to 11.6.

B9: CFP-T7-H24 (protein)
chain: MTSNRADTRVIVVGGGGTIGSSTALHLVRSGYAPANITVLDTFEIPSAQSAGHDLNKIMGIDARNKVDLQMSLEARQMWKEDELFQPFFHNTGRMDCEHTPEGIEKLKKLYQKLHDAGAGLEKTHAWLDNEDEILSKMPLLQRDQIQGWKAIWSQDGGWLAAAKAINAIGQFLKERGVKFGFGGAGSFKQPLFDDEGTTCIGVETADGTKYYADKVVLAAGAWSPTLVDLEDQCCSKAWVYAHIQLTPEEAAEYKGVPVVYNGEFGFFFEPDEFGVIKVCDEFPGFSRFKEHQPYGAPSPKRISVPRSHAKHPTDTYPDASEVSIKKAIATFLPRFQDKELFNRALCWCTDTADAALLMCEHPKWKNFILATGDSGHSFKILPNVGKYVVELIEGRLPEEMAYQWRWRPGGDALKSRRAAPPKDLADMPGWKHDPKL
B9: the αF6P oxidation activity ratio, relative to CFP-T7-H20 designated to be 100 (relative (CFP-T7-H20 = 100)) was determined as 123 and the αF6P oxidation activity, relative to αFVH oxidation activity designated to be 100 (relative (αFVH = 100)) was 86.7.

B10: CFP-T7-H26 (protein)
chain: MTSNRADTRVIVVGGGGTIGSSTALHLVRSGYAPANITVLDTFEIPSAQSAGHDLNKIMGIDHRNKVDLQMSLEARQMWKEDELFQPFFHNTGRMDCEHTPEGIEKLKKLYQKLHDAGAGLEKTHAWLDNEDEILSKMPLLQRDQIQGWKAIWSQDGGWLAAAKAINAIGQFLKERGVKFGFGGAGSFKQPLFDDEGTTCIGVETADGTKYYADKVVLAAGAWSPTLVDLEDQCCSKAWVYAHIQLTPEEAAEYKGVPVVYNGEFGFFFEPDEFGVIKVCDEFPGFSRFKEHQPYGAPSPKRISVPRSHAKHPTDTYPDASEVSIKKAIATFLPRFQDKELFNRALCWCTDTADAALLMCEHPKWKNFILATGDSGHSFKILPNVGKYVVELIEGRLPEEMAYQWRWRPGGDALKSRRAAPPKDLADMPGWKHDPKL
Take B10: the αF6P oxidation activity ratio (reference, designated to be 100) (relative (CFP-T7-H26 = 100)) is 100; the αF6P oxidation activity ratio, relative to CFP-T7-H20 designated to be 100 (relative (CFP-T7-H20 = 100)) stood at 142; the αF6P oxidation activity, relative to αFVH oxidation activity designated to be 100 (relative (αFVH = 100)) came to 84.3.

B11: CFP-T7-H27 (protein)
chain: MTSNRADTRVIVVGGGGTIGSSTALHLVRSGYAPANITVLDTFEIPSAQSAGHDLNKIMGIDKRNKVDLQMSLEARQMWKEDELFQPFFHNTGRMDCEHTPEGIEKLKKLYQKLHDAGAGLEKTHAWLDNEDEILSKMPLLQRDQIQGWKAIWSQDGGWLAAAKAINAIGQFLKERGVKFGFGGAGSFKQPLFDDEGTTCIGVETADGTKYYADKVVLAAGAWSPTLVDLEDQCCSKAWVYAHIQLTPEEAAEYKGVPVVYNGEFGFFFEPDEFGVIKVCDEFPGFSRFKEHQPYGAPSPKRISVPRSHAKHPTDTYPDASEVSIKKAIATFLPRFQDKELFNRALCWCTDTADAALLMCEHPKWKNFILATGDSGHSFKILPNVGKYVVELIEGRLPEEMAYQWRWRPGGDALKSRRAAPPKDLADMPGWKHDPKL
B11: the αF6P oxidation activity ratio, relative to CFP-T7-H20 designated to be 100 (relative (CFP-T7-H20 = 100)) was 7.

For the origin of these results see patent US20150118700.
